6 molecules from US20220298218A1 (ANTAG THERAPEUTICS, published 2022) can be followed below.

Assay [1] addresses T1, human GIP receptor (human, UniProt P48546 22-466).
T1 sequence (looked up): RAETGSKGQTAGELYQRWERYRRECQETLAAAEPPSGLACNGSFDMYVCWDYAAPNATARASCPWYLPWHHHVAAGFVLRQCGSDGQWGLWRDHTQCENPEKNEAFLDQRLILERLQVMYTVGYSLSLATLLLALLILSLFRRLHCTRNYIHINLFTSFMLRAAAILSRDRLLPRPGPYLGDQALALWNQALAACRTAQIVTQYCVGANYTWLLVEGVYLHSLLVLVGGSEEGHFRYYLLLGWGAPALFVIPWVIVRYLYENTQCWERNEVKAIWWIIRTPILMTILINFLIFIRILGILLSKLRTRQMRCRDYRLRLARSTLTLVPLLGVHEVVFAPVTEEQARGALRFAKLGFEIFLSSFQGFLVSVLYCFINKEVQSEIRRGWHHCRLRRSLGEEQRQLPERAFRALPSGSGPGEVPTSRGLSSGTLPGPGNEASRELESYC
Description: cell-based or functional assay.

The target of assay [2] is T1, human GIP receptor. Description: cell-based or functional assay. The source holds these as a separate data set.

Where two headings read alike, the source gives them in different places. Where no end group is shown, it is not given here. The star is where a group is joined. C16 diacid = O=C(O)CCCCCCCCCCCCCCC(=O)*

B1: AT447 (peptide)
peptide: EGTFISDYSIAMDKIK(C16 diacid)QQDFVNWLLAQKG-OH
modifications: N-terminus assumed
SMILES: CC[C@H](C)[C@H](NC(=O)[C@H](CO)NC(=O)[C@H](Cc1ccc(O)cc1)NC(=O)[C@H](CC(=O)O)NC(=O)[C@H](CO)NC(=O)[C@@H](NC(=O)[C@H](Cc1ccccc1)NC(=O)[C@@H](NC(=O)CNC(=O)[C@@H](N)CCC(=O)O)[C@@H](C)O)[C@@H](C)CC)C(=O)N[C@@H](C)C(=O)N[C@@H](CCSC)C(=O)N[C@@H](CC(=O)O)C(=O)N[C@@H](CCCCN)C(=O)N[C@H](C(=O)N[C@@H](CCCCNC(=O)CCCCCCCCCCCCCCC(=O)O)C(=O)N[C@@H](CCC(N)=O)C(=O)N[C@@H](CCC(N)=O)C(=O)N[C@@H](CC(=O)O)C(=O)N[C@@H](Cc1ccccc1)C(=O)N[C@H](C(=O)N[C@@H](CC(N)=O)C(=O)N[C@@H](Cc1c[nH]c2ccccc12)C(=O)N[C@@H](CC(C)C)C(=O)N[C@@H](CC(C)C)C(=O)N[C@@H](C)C(=O)N[C@@H](CCC(N)=O)C(=O)N[C@@H](CCCCN)C(=O)NCC(=O)O)C(C)C)[C@@H](C)CC
Consider B1, for which, in assay [1], the “cAMP agonism Emax” value was 4.2, the “cAMP antagonism” value came out at 9 nM, the “cAMP antagonism % inhib” value amounted to 82% and the cAMP antagonism log was -8.1 log M. For the same molecule, in assay [2], the “cAMP agonism % Emax” value is 0%, the “cAMP antagonism” value is 11.9 nM, the “cAMP antagonism % inhib” value came out at 93% and the “cAMP antagonism pIC50” value was 7.9.

B2: AT450 (peptide)
peptide: EGTFISDYSIAMDKIK(C16 diacid)QQDFVNWLLAQKGKKND-OH
modifications: N-terminus assumed
SMILES: CC[C@H](C)[C@H](NC(=O)[C@H](CO)NC(=O)[C@H](Cc1ccc(O)cc1)NC(=O)[C@H](CC(=O)O)NC(=O)[C@H](CO)NC(=O)[C@@H](NC(=O)[C@H](Cc1ccccc1)NC(=O)[C@@H](NC(=O)CNC(=O)[C@@H](N)CCC(=O)O)[C@@H](C)O)[C@@H](C)CC)C(=O)N[C@@H](C)C(=O)N[C@@H](CCSC)C(=O)N[C@@H](CC(=O)O)C(=O)N[C@@H](CCCCN)C(=O)N[C@H](C(=O)N[C@@H](CCCCNC(=O)CCCCCCCCCCCCCCC(=O)O)C(=O)N[C@@H](CCC(N)=O)C(=O)N[C@@H](CCC(N)=O)C(=O)N[C@@H](CC(=O)O)C(=O)N[C@@H](Cc1ccccc1)C(=O)N[C@H](C(=O)N[C@@H](CC(N)=O)C(=O)N[C@@H](Cc1c[nH]c2ccccc12)C(=O)N[C@@H](CC(C)C)C(=O)N[C@@H](CC(C)C)C(=O)N[C@@H](C)C(=O)N[C@@H](CCC(N)=O)C(=O)N[C@@H](CCCCN)C(=O)NCC(=O)N[C@@H](CCCCN)C(=O)N[C@@H](CCCCN)C(=O)N[C@@H](CC(N)=O)C(=O)N[C@@H](CC(=O)O)C(=O)O)C(C)C)[C@@H](C)CC
As for B2, in assay [1], the “cAMP agonism Emax” value is 5.8, the “cAMP antagonism” value worked out at 3 nM, the “cAMP antagonism % inhib” value was 57% and the cAMP antagonism log is -8.5 log M. Besides, in assay [2], the “cAMP agonism % Emax” value turned out to be 0%, the “cAMP antagonism” value stood at 2.29 nM, the “cAMP antagonism % inhib” value was 97% and the “cAMP antagonism pIC50” value was found to be 8.6.

B3: AT449 (peptide)
peptide: EGTFISDYSIAMDKIK(C16 diacid)QQDFVNWLLAQKGKKN-OH
modifications: N-terminus assumed
SMILES: CC[C@H](C)[C@H](NC(=O)[C@H](CO)NC(=O)[C@H](Cc1ccc(O)cc1)NC(=O)[C@H](CC(=O)O)NC(=O)[C@H](CO)NC(=O)[C@@H](NC(=O)[C@H](Cc1ccccc1)NC(=O)[C@@H](NC(=O)CNC(=O)[C@@H](N)CCC(=O)O)[C@@H](C)O)[C@@H](C)CC)C(=O)N[C@@H](C)C(=O)N[C@@H](CCSC)C(=O)N[C@@H](CC(=O)O)C(=O)N[C@@H](CCCCN)C(=O)N[C@H](C(=O)N[C@@H](CCCCNC(=O)CCCCCCCCCCCCCCC(=O)O)C(=O)N[C@@H](CCC(N)=O)C(=O)N[C@@H](CCC(N)=O)C(=O)N[C@@H](CC(=O)O)C(=O)N[C@@H](Cc1ccccc1)C(=O)N[C@H](C(=O)N[C@@H](CC(N)=O)C(=O)N[C@@H](Cc1c[nH]c2ccccc12)C(=O)N[C@@H](CC(C)C)C(=O)N[C@@H](CC(C)C)C(=O)N[C@@H](C)C(=O)N[C@@H](CCC(N)=O)C(=O)N[C@@H](CCCCN)C(=O)NCC(=O)N[C@@H](CCCCN)C(=O)N[C@@H](CCCCN)C(=O)N[C@@H](CC(N)=O)C(=O)O)C(C)C)[C@@H](C)CC
On to B3, for which, in assay [1], the “cAMP agonism Emax” value was 8.6, the “cAMP antagonism” value came to 4 nM, the “cAMP antagonism % inhib” value stood at 95% and the cAMP antagonism log was -8.4 log M. Further, in assay [2], the “cAMP agonism % Emax” value worked out at 0%, the “cAMP antagonism” value is 5.84 nM, the “cAMP antagonism % inhib” value is 89% and the “cAMP antagonism pIC50” value worked out at 8.2.

B4: AT360 (peptide)
peptide: EGTFISDYSIAMDKIK(C16 diacid)QQDFVNWLLAQKGKK-OH
modifications: N-terminus assumed
SMILES: CC[C@H](C)[C@H](NC(=O)[C@H](CO)NC(=O)[C@H](Cc1ccc(O)cc1)NC(=O)[C@H](CC(=O)O)NC(=O)[C@H](CO)NC(=O)[C@@H](NC(=O)[C@H](Cc1ccccc1)NC(=O)[C@@H](NC(=O)CNC(=O)[C@@H](N)CCC(=O)O)[C@@H](C)O)[C@@H](C)CC)C(=O)N[C@@H](C)C(=O)N[C@@H](CCSC)C(=O)N[C@@H](CC(=O)O)C(=O)N[C@@H](CCCCN)C(=O)N[C@H](C(=O)N[C@@H](CCCCNC(=O)CCCCCCCCCCCCCCC(=O)O)C(=O)N[C@@H](CCC(N)=O)C(=O)N[C@@H](CCC(N)=O)C(=O)N[C@@H](CC(=O)O)C(=O)N[C@@H](Cc1ccccc1)C(=O)N[C@H](C(=O)N[C@@H](CC(N)=O)C(=O)N[C@@H](Cc1c[nH]c2ccccc12)C(=O)N[C@@H](CC(C)C)C(=O)N[C@@H](CC(C)C)C(=O)N[C@@H](C)C(=O)N[C@@H](CCC(N)=O)C(=O)N[C@@H](CCCCN)C(=O)NCC(=O)N[C@@H](CCCCN)C(=O)N[C@@H](CCCCN)C(=O)O)C(C)C)[C@@H](C)CC
In the case of B4, in assay [1], the “cAMP agonism Emax” value is 20, the “cAMP antagonism” value is 86 nM, the “cAMP antagonism % inhib” value was 85% and the cAMP antagonism log was -7.1 log M. For the same molecule, in assay [2], the “cAMP agonism % Emax” value was 0%, the “cAMP antagonism” value was found to be 12.6 nM, the “cAMP antagonism % inhib” value amounted to 96% and the “cAMP antagonism pIC50” value was 7.9.

B5: AT474 (peptide)
peptide: EGTFISDYSIAMDKIK(C16 diacid)QQDFVNWLLAQKGP-OH
modifications: N-terminus assumed
SMILES: CC[C@H](C)[C@H](NC(=O)[C@H](CO)NC(=O)[C@H](Cc1ccc(O)cc1)NC(=O)[C@H](CC(=O)O)NC(=O)[C@H](CO)NC(=O)[C@@H](NC(=O)[C@H](Cc1ccccc1)NC(=O)[C@@H](NC(=O)CNC(=O)[C@@H](N)CCC(=O)O)[C@@H](C)O)[C@@H](C)CC)C(=O)N[C@@H](C)C(=O)N[C@@H](CCSC)C(=O)N[C@@H](CC(=O)O)C(=O)N[C@@H](CCCCN)C(=O)N[C@H](C(=O)N[C@@H](CCCCNC(=O)CCCCCCCCCCCCCCC(=O)O)C(=O)N[C@@H](CCC(N)=O)C(=O)N[C@@H](CCC(N)=O)C(=O)N[C@@H](CC(=O)O)C(=O)N[C@@H](Cc1ccccc1)C(=O)N[C@H](C(=O)N[C@@H](CC(N)=O)C(=O)N[C@@H](Cc1c[nH]c2ccccc12)C(=O)N[C@@H](CC(C)C)C(=O)N[C@@H](CC(C)C)C(=O)N[C@@H](C)C(=O)N[C@@H](CCC(N)=O)C(=O)N[C@@H](CCCCN)C(=O)NCC(=O)N1CCC[C@H]1C(=O)O)C(C)C)[C@@H](C)CC
For B5, in assay [1], the “cAMP agonism Emax” value came to 5.9, the “cAMP antagonism” value was 4 nM, the “cAMP antagonism % inhib” value came to 100% and the cAMP antagonism log was -8.4 log M. Moreover, in assay [2], the “cAMP agonism % Emax” value was determined as 0%, the “cAMP antagonism” value was found to be 13.6 nM, the “cAMP antagonism % inhib” value came out at 86% and the “cAMP antagonism pIC50” value came out at 7.9.

B6: AT448 (peptide)
peptide: EGTFISDYSIAMDKIK(C16 diacid)QQDFVNWLLAQKGK-OH
modifications: N-terminus assumed
SMILES: CC[C@H](C)[C@H](NC(=O)[C@H](CO)NC(=O)[C@H](Cc1ccc(O)cc1)NC(=O)[C@H](CC(=O)O)NC(=O)[C@H](CO)NC(=O)[C@@H](NC(=O)[C@H](Cc1ccccc1)NC(=O)[C@@H](NC(=O)CNC(=O)[C@@H](N)CCC(=O)O)[C@@H](C)O)[C@@H](C)CC)C(=O)N[C@@H](C)C(=O)N[C@@H](CCSC)C(=O)N[C@@H](CC(=O)O)C(=O)N[C@@H](CCCCN)C(=O)N[C@H](C(=O)N[C@@H](CCCCNC(=O)CCCCCCCCCCCCCCC(=O)O)C(=O)N[C@@H](CCC(N)=O)C(=O)N[C@@H](CCC(N)=O)C(=O)N[C@@H](CC(=O)O)C(=O)N[C@@H](Cc1ccccc1)C(=O)N[C@H](C(=O)N[C@@H](CC(N)=O)C(=O)N[C@@H](Cc1c[nH]c2ccccc12)C(=O)N[C@@H](CC(C)C)C(=O)N[C@@H](CC(C)C)C(=O)N[C@@H](C)C(=O)N[C@@H](CCC(N)=O)C(=O)N[C@@H](CCCCN)C(=O)NCC(=O)N[C@@H](CCCCN)C(=O)O)C(C)C)[C@@H](C)CC
Regarding B6, in assay [1], the “cAMP agonism Emax” value turned out to be 6.2, the “cAMP antagonism” value was 6 nM, the “cAMP antagonism % inhib” value is 77% and the cAMP antagonism log is -8.2 log M. Besides, in assay [2], the “cAMP agonism % Emax” value came out at 0%, the “cAMP antagonism” value amounted to 1.36 nM, the “cAMP antagonism % inhib” value amounted to 96% and the “cAMP antagonism pIC50” value came to 8.9.
